# In publication PMC7108746:
# Biological target: transmembrane Crumbs2 (CRB2TM) (mouse (endogenous in E15.5 spinal cord sections)) (UniProt Q80YA8)
# Sequence of UniProt Q80YA8 (Q80YA8 36-1282): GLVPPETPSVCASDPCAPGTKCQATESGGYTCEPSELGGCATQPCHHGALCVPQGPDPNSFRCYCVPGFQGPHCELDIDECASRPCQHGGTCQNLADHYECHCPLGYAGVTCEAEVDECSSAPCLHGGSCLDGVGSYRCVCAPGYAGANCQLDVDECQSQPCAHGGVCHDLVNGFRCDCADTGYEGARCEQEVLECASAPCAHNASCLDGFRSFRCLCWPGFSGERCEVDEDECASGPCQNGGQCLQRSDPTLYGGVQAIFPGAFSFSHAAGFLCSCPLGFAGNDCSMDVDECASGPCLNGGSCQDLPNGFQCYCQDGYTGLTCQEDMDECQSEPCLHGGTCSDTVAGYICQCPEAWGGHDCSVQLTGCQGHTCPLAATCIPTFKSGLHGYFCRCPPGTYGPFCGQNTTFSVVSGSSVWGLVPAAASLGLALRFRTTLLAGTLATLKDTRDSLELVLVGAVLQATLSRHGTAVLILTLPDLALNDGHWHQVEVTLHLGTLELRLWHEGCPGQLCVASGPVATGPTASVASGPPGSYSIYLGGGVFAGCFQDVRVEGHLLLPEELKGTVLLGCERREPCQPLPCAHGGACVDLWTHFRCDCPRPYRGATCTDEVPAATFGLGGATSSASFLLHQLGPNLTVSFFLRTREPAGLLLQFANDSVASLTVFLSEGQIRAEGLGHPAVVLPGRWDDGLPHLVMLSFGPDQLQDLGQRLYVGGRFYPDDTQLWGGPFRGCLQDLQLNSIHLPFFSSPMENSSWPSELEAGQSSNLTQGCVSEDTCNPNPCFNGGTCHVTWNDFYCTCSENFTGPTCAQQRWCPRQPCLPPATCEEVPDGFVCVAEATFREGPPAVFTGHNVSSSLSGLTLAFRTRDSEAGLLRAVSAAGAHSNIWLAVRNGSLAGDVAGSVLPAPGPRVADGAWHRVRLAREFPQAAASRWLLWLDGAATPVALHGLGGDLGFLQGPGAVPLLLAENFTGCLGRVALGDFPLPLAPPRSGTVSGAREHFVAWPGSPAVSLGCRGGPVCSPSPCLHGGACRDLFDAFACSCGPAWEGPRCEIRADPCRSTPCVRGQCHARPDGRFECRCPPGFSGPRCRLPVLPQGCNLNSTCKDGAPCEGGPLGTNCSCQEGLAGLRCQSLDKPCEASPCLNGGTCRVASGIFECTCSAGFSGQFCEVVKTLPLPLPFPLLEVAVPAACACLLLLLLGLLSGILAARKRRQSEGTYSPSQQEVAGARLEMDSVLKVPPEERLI
substance,measurement,value
"secreted Crumbs2 (CRB2S), His-tagged (natural protein)",apically localised ZO-1 in MDCK cells seeded at high density and cultured with high concentrations of CRB2S (77% of cells in control medium),23%
